From patent US20060228350A1 (AstraZeneca / MedImmune, published 2006)
Substitutions are numbered along the chain they refer to. Each block holds one molecule with its values, some of them ahead of it.

Columns and labels:
[1] = target: Human EphA2-Fc fusion protein (human EphA2 fused with the Fc portion of a human IgG1) (human) (UniProt P29317); assay: single point capture ELISA, 1 µg goat anti-human Fd, biotinylated EphA2-Fc 300-600 ng/well
[2] = target: Human EphA2-Fc fusion protein (human EphA2 fused with the Fc portion of a human IgG1) (human) (UniProt P29317); assay: single point capture ELISA, 500 ng goat anti-human Fab, biotinylated EphA2-Fc 300 ng/well
[3] = target: Human EphA2-Fc fusion protein (human EphA2 fused with the Fc portion of a human IgG1) (human) (UniProt P29317); assay: as above; remark: listed apart in the source
[4] = target: Human EphA2-Fc fusion protein (human EphA2 fused with the Fc portion of a human IgG1) (human) (UniProt P29317); assay: single point capture ELISA, 500 ng goat anti-human Fab; same plate as VH-233/VL-8G7
[5] = target: Human EphA2-Fc fusion protein (human EphA2 fused with the Fc portion of a human IgG1) (human) (UniProt P29317); assay: single point capture ELISA, 20 ng goat anti-human Fab, biotinylated EphA2-Fc 300 ng/well
[6] = target: Human EphA2-Fc fusion protein (human EphA2 fused with the Fc portion of a human IgG1) (human) (UniProt P29317); assay: single point capture ELISA, 100 ng goat anti-human Fab, biotinylated EphA2-Fc 300 ng/well
[7] = target: Human EphA2-Fc fusion protein (human EphA2 fused with the Fc portion of a human IgG1) (human) (UniProt P29317); assay: single point capture ELISA, 500 ng goat anti-human Fab; same plate as VH-6H11/VL-8G7
[8] = target: Human EphA2-Fc fusion protein (human EphA2 fused with the Fc portion of a human IgG1) (human) (UniProt P29317); assay: single point capture ELISA, 500 ng goat anti-human Fab, biotinylated EphA2-Fc 300 ng/well; remark: listed apart in the source
[9] = target: Human EphA2-Fc fusion protein (human EphA2 fused with the Fc portion of a human IgG1) (human) (UniProt P29317); assay: single point capture ELISA, 500 ng goat anti-human Fab; same plate as VH-2G6/VL-12C8
[10] = target: Human EphA2-Fc fusion protein (human EphA2 fused with the Fc portion of a human IgG1) (human) (UniProt P29317); assay: single point capture ELISA, 500 ng goat anti-human Fab; same plate as VH-233/VL-12C8
[11] = target: Human EphA2-Fc fusion protein (human EphA2 fused with the Fc portion of a human IgG1) (human) (UniProt P29317); assay: single point capture ELISA, 500 ng goat anti-human Fab; same plate as VH-7E8/VL-8G7
[12] = target: T1, Human EphA2-Fc fusion protein (human EphA2 fused with the Fc portion of a human IgG1) (human, UniProt P29317 24-534, limits assumed); assay: SPR (BIAcore 3000), EphA2-Fc coupled to CM5 chip, IgG in solution, koff/kon
T1 construct: also called biotinylated human EphA2-Fc; not shown: Fc portion of a human IgG1
T1 sequence (P29317 24-534 limits assumed): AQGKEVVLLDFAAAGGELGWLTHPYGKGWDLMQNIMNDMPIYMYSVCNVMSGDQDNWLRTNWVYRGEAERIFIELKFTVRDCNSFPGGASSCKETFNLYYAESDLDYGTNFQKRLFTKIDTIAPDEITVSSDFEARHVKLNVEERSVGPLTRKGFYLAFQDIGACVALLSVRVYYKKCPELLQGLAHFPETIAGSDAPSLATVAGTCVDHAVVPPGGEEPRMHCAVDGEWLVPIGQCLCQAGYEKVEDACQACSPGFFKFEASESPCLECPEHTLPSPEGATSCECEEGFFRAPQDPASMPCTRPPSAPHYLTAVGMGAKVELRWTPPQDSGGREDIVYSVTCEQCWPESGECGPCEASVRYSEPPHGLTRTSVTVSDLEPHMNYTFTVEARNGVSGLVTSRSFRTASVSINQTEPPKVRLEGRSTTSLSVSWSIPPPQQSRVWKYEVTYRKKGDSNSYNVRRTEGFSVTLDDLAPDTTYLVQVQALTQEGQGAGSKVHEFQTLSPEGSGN
Method: (§1) IgGs were diluted in 0.01 M HEPES pH 7.4 containing 0.15 M NaCl, 3 mM EDTA and 0.005% P20. All subsequent dilutions were made in the same buffer. All binding experiments were performed at 25° C. with IgG concentrations typically ranging from 100 nM to 0.2 nM at a flow rate of 75 μL/min; data were collected for approximately 25 min and one 1-min pulse of 1 M NaCl, 50 mM NaOH was used to regenerate the surfaces. IgGs were also flowed over an uncoated cell and the sensorgrams from these blank runs subtracted from those obtained with EphA2-Fc-coupled chips. Data were fitted to a 1:1 Langmuir binding model. This algorithm calculates both the kₒₙ and the koff, from which the apparent equilibrium dissociation constant, KD, is deduced as the ratio of the two rate constants (koff/kₒₙ).

[13] = target: T1, Human EphA2-Fc fusion protein (human …); assay: SPR (BIAcore 3000), EphA2-Fc coupled to CM5 chip, IgG in solution, 1:1 Langmuir fit
Method: as §1

[14] = target: Human EphA2-Fc fusion protein (human EphA2 fused with the Fc portion of a human IgG1) (human) (UniProt P29317); assay: single point capture ELISA, periplasmic Fab on 500 ng goat anti-human Fab, biotinylated EphA2-Fc 300 ng/well
[15] = target: Human EphA2-Fc fusion protein (human EphA2 fused with the Fc portion of a human IgG1) (human) (UniProt P29317); assay: single point capture ELISA, periplasmic extracts from 15 ml culture, 500 ng goat anti-human Fab
[16] = target: T1, Human EphA2-Fc fusion protein (human …); assay: BIAcore, human IgG1 format on immobilized EphA2-Fc
[17] = target: T1, Human EphA2-Fc fusion protein (human …); assay: SPR (BIAcore 3000), EphA2-Fc coupled to CM5 chip (~500 RU), IgG in solution, koff/kon
Method: (§2) EphA2-Fc was coupled to the dextran matrix of a CM5 sensor chip (Pharmacia Biosensor) using an Amine Coupling Kit as described (B. Johnsson et al., 1991, Anal. Biochem. 198: 268-277) at a surface density of approximately 500 RU. IgGs were diluted in 0.01 M HEPES pH 7.4 containing 0.15 M NaCl, 3 mM EDTA and 0.005% P20. All subsequent dilutions were made in the same buffer. All binding experiments were performed at 25° C. with IgG concentrations typically ranging from 100 nM to 0.2 nM at a flow rate of 75 μL/min; data were collected for approximately 25 min and two 30-sec pulse of 1M NaCl, 50 mM NaOH was used to regenerate the surfaces. IgGs were also flowed over an uncoated cell and the sensorgrams from these blank runs subtracted from those obtained with EphA2-Fc-coupled chips. Data were fitted to a 1:1 Langmuir binding model. This algorithm calculates both the kₒₙ and the koff, from which the apparent equilibrium dissociation constant, KD, is deduced as the ratio of the two rate constants (koff/kₒₙ).

[18] = target: T1, Human EphA2-Fc fusion protein (human …); assay: SPR (BIAcore 3000), EphA2-Fc coupled to CM5 chip (~500 RU), IgG in solution, 1:1 Langmuir fit
Method: as §2

Sequence of Human EphA2-Fc fusion protein (human EphA2 fused with the Fc portion of a human IgG1) (human) (P29317 24-534 limits assumed): as above

- OD450 (background signal) [1]: 0.3 OD450
Molecule: irrelevant antibody (background control of Example 2)

- OD450 (background signal) [2]: 0.06 to 0.2 OD450
- OD450 (background signal) [3]: 0.07 to 0.1 OD450
- OD450 (background signal) [4]: 0.2 OD450
- OD450 (background signal) [5]: 0.1 OD450
- OD450 (background signal) [6]: 0.1 to 0.4 OD450
- OD450 (background signal) [7]: 0.2 OD450
- OD450 (background signal) [8]: 0.3 OD450
- OD450 (background signal) [9]: 0.3 OD450
- OD450 (background signal) [10]: 0.1 OD450
- OD450 (background signal) [11]: 0.2 OD450
Molecule: irrelevant antibody (MEDI-493)

- Kd [12]: 0.4 nM
- koff [13]: 0.00011 s⁻¹
- kon [13]: 280000 M⁻¹ s⁻¹
B1: mAb B233 (mouse anti-human EphA2 monoclonal antibody) (antibody, V domains shown)
VH: EVKLVESGGGLVQPGGSLSLSCAASGFTFTDYSMNWVRQPPGKALEWLGFIRNKANDYTTEYSASVKGRFTISRDNSQSILYLQMNALRAEDSATYYCVRYPRYHAMDSWGQGTSVTVSS
VL: DIVLTQSPATLSVTPGDSVNLSCRASQSISNNLHWYQQKSHESPRLLIKYVFQSISGIPSRFSGSGSGTDFTLSINSVETEDFGMYFCQQSNSWPLTFGAGTKLELK
notes: Murine hybridoma antibody; also called B233 (murine); parental mAb B233

- Kd [12]: 0.3 nM
- koff [13]: 8e-05 s⁻¹
- kon [13]: 240000 M⁻¹ s⁻¹
B2: VH-233/VL-233 IgG (chimaeric form of mAb B233, full length human IgG1) (antibody, V domains shown)
VH: B1 VH
VL: B1 VL
notes: Human IgG1 / human kappa constant regions, expressed in HEK 293 cells; also called VH-B233/VL-B233 (chimeric); chimaeric B233

- Kd [17]: 5.94 nM
- koff [18]: 0.00307 s⁻¹
- kon [18]: 517000 M⁻¹ s⁻¹
B7: mAb EA2 (mouse anti-human EphA2 monoclonal antibody) (antibody, V domains shown)
VH: DVKLVESGGGLVKPGGSLKLSCAASGFTFSSYTMSWVRQTPEKRLEWVATISSGGTYTYYPDSVKGRFTISRDNAKNTLYLQMSSLKSEDTAMYYCTREAIFTYWGQGTLVTVSA
VL: DIKMTQSPSSMYASLGERVTITCKASQDINNYLSWFQQKPGKSPKTLIYRANRLVDGVPSRFSGSGSGQDYSLTISSLEYEDMGIYYCLKYDEFPYTFGGGTKLEIK
notes: Murine hybridoma antibody; also called EA2 (murine); parental mAb EA2

- Kd [12]: 48 nM
- koff [13]: 0.00045 s⁻¹
- kon [13]: 9300 M⁻¹ s⁻¹
- fold avidity decrease against parental mAb B233 [16]: 160 fold
B9: VH-7E8/VL-8G7 (humanized) full length human IgG1 (antibody, V domains shown)
VH: EVQLVESGGGLVKPGGSLRLSCAASGFTFSDYSMNWVRQASGKGLEWVGFIRNKANDYTTEYSASVKGRFTISRDDSKNTLYLQMNSLKTEDTAVYYCTTYPRYHAMDSWGQGTLVTVSS
VL: EIVLTQSPATLSVSPGERATLSCRASQSISNNLHWYQQKPGKAPKSLIYYVFQSISGVPSRFSGSGSGTDFTLTINSLEAEDAATYYCQQSNSWPLTFGGGTKVDIK
notes: Human IgG1 / human kappa, expressed in HEK 293 cells

More lines, now with the values behind:

B3: VH-2G6/VL-12C8 Fab (framework-shuffled, fully humanized clone from library B) (Fab, from another filing, V domains shown)
VH: B9 VH with L11V, K13R, F29V, S41P, V48I, L115M
VL: AIQLTQSPSSLSASVGDRVTITCRASQSISNNLHWYLQKPGQSPQLLIYYVFQSISGVPSRFSGSGSGTDFTLTISSLQPEDFATYYCQQSNSWPLTFGGGTKLEIK
- OD450 [14]: 2.8 OD450
- [specific OD450/background OD450] ratio [15]: 40

B4: VH-2G6/VL-12C8 (humanized) full length human IgG1 (antibody, V domains shown)
VH: B9 VH with L11V, K13R, F29V, S41P, V48I, L115M
VL: B3 VL
notes: as for B9
- Kd [12]: 3 nM
- koff [13]: 0.00019 s⁻¹
- kon [13]: 64000 M⁻¹ s⁻¹
- fold avidity decrease against parental mAb B233 [16]: 10 fold

B5: VH-4H5/VL-4H5 full length human IgG1 (antibody, V domains shown)
VH: QVQLLESGGGLVQPGGSLRLSCAASGFTFSSYTMSWVRQAPGQALEWMGTISSGGTYTYYPDSVKGRFTISRDNAKNSLYLQMNSLRAEDTAVYYCAREAIFTYWGRGTLVTVSS
VL: DIQLTQSPSSLSASVGDRVTITCKASQDINNYLSWYQQKPGQAPRLLIYRANRLVDGVPDRFSGSGYGTDFTLTINNIESEDAAYYFCLKYDVFPYTFGQGTKVEIK
notes: as for B9
- Kd [17]: 0.067 nM
- fold avidity increase against parental mAb EA2 [16]: 90 fold
- koff [18]: 6.6e-05 s⁻¹
- kon [18]: 980000 M⁻¹ s⁻¹

B6: VH-4H5/VL-“corrected” 4H5 full length human IgG1 (antibody, V domains shown)
VH: B5 VH
VL: B5 VL with V93E
notes: Human IgG1 / human kappa, expressed in HEK 293 cells; also called 4H5 corrected
- Kd [17]: 1.4 nM
- fold avidity increase against parental mAb EA2 [16]: 4 fold
- koff [18]: 0.00105 s⁻¹
- kon [18]: 750000 M⁻¹ s⁻¹

B8: VH-6H11/VL-8G7 (humanized) full length human IgG1 (antibody, V domains shown)
VH: B9 VH with K13Q, S41P, G49A, D76N, K89R, T90A, V95M, T99A, T100R
VL: B9 VL
notes: as for B9
- Kd [12]: 1.9 nM
- koff [13]: 0.00018 s⁻¹
- kon [13]: 96000 M⁻¹ s⁻¹
- fold avidity decrease against parental mAb B233 [16]: 6 fold
